These results are taken from patent US20140323349A1, “COMPOSITIONS AND METHODS FOR MONITORING AND DETECTING CANCEROUS CONDITIONS” (PHIGENIX, INC., priority 2011, published 2014).

What all share (type): cell-based, human
The test system of data set [1] is active caspases. Put plainly: Pan-caspase detection (FAM-VAD-FMK, confocal). The procedure:
Detection of caspase activity in the prostate cancer cell lines was performed using APO LOGIX™ Carboxyfluorescin Caspase detection kit (Cell Technology, Mountain View, Calif.). Active caspases were detected through the use of a FAM-VAD-FMK inhibitor that irreversibly binds to active caspases. […] Next, 10 μl of a 30× working dilution of carboxyfluorescein labeled peptide fluoromethyl ketone (FAM-VAD-FMK) was added to 300 μl of media and added to each 35 mm dish. Cells were then incubated for 1 hour at 37° C. under 5% CO2. Then, the medium was aspirated and the cells were washed twice with 2 ml of a 1× Working dilution Wash Buffer. Cells were viewed under differential interference contrast (DIC) or under laser excitation at 488 nm. The fluorescent signal was analyzed using a confocal microscope (Zeiss LSM 5 Pascal) and a 63×DIC oil lens with a Vario 2 RGB Laser Scanning Module.

For data set [2], the system named is PC3 cells. Briefly: AO/EtBr membrane integrity staining. As to the method:
(§1) Acridine orange (AO)/ethidium bromide (EtBr) dual staining was performed to identify changes in cell membrane integrity, as well as apoptotic cells by staining the condensed chromatin. AO stains viable cells as well as early apoptotic cells, whereas EtBr stains late stage apoptotic cells that have lost […]. Briefly, cells were seeded into 2 chamber culture slides (BD Falcon, USA). […] In order to determine the effect of PAX2 inhibition on membrane integrity, separate culture slides containing DU145, PC3 and LNCaP were treated with PAX2 siRNA and incubated for 4 days. Following this, cells were washed once with PBS and stained with 2 ml of a mixture (1:1) of AO (Sigma, USA) and EtBr (Promega, USA) (5 ug/ml) solution for 5 min. Following staining, the cells were again washed with PBS. Fluorescence was viewed by a Zeiss LSM 5 Pascal Vario 2 Laser Scanning Confocal Microscope (Carl Zeiss Jena, Germany). The excitation color wheel contain BS505-530 (green) and LP560 (red) filter blocks which allowed for the separation of emitted green light from AO into the green channel and red light from EtBr into the red channel. […] The excitation was provided by a Kr/Ar mixed gas laser at wavelengths of […]. Slides were analyzed under 40× magnification and digital images were stored as uncompressed TIFF files and exported into Photoshop CS software (Adobe Systems, San Jose, Calif.) for image processing and hard copy presentation.
(§2) Acridine orange (AO)/ethidium bromide (EtBr) dual staining was performed to identify changes in cell membrane integrity, as well as apoptotic cells by staining the condensed chromatin. AO stains viable cells and early apoptotic cells, whereas EtBr stains late stage apoptotic cells that have compromised membranes. Briefly, PC3, DU145 and LNCaP cells were seeded into 2-chamber culture slides (BD Falcon). Cells transfected with empty plasmid or hBD-1 plasmid were induced for 24 or 48 h with media containing 10 μM Pon A, while control cells received fresh growth media at each time point. After induction, cells were washed once with PBS and stained with 2 ml of a mixture (1:1) of AO (Sigma, St. Louis, Mo.) and EtBr (Promega) (5 μg/ml) solution for 5 min and were again washed with PBS.
(§3) Fluorescence was viewed by a Zeiss LSM 5 Pascal Vario 2 Laser Scanning Confocal Microscope (Carl Zeiss). The excitation color wheel contains BS505-530 (green) and LP560 (red) filter blocks which allowed for the separation of emitted green light from AO into the green channel and red light from EtBr into the red channel. The laser power output and gain control settings within each individual experiment were identical between control and hBD-1 induced cells. The excitation was provided by a Kr/Ar mixed gas laser at wavelengths of […]. Slides were analyzed under 40× magnification and digital images were stored as uncompressed TIFF files and exported into Photoshop CS software (Adobe Systems) for image processing and hard copy presentation.

The subject of data set [3] is LNCaP cells. Put plainly: AO/EtBr membrane integrity staining. To be noted: 48 h hBD-1 induction. The procedure:
as §1, §2, §3

The subject of data set [4] is DU145 cells. Put plainly: AO/EtBr membrane integrity staining. As to the method: as §1, §2, §3
Data set [5] relates to PC3/AR+ cells. Briefly: MTT cell viability assay. To be noted: PC3/AR+ versus PC3. As to the method:
(§4) To examine the effects of hBD-1 on cell growth, metabolic 3-[4,5-dimethylthiazol-2yl]-2,5-diphenyl tetrazolium bromide (MTT) assay was performed. DU145, LNCaP, PC3 and PC3/AR+ cells co-transfected with pvgRXR plasmid and pIND/hBD-1 construct or control pvgRXR plasmid were seeded onto a 96-well plate at 1-5×10^3 cells per well. Twenty-four hours after seeding, fresh growth medium was added containing 10 μM Pon A daily to induce hBD-1 expression for 24, 48 and 72 h after which the MTT assay was performed according to the manufacturer's instructions (Promega). Reactions were performed three times in triplicate.
On the technique in general: Formazan colour is commonly taken as a measure of viable cells.

The test system of data set [6] is PC3 cells. Put plainly: Phase contrast microscopy of cell growth. To be noted: PC3, 48 h DEFB1 induction. As to the method: (§5) Cell morphology was analyzed by phase contrast microscopy. […] The following day plasmid-containing cells were induced for a period of 48 h with media containing 10 μM Ponasterone A, while control cells received fresh media. The cells were then viewed under an inverted Zeiss IM 35 microscope (Carl Zeiss, Germany). Phase contrast pictures of a field of cells were obtained using the SPOT Insight Mosaic 4.2 camera (Diagnostic Instruments, USA). Cells were examined by phase contrast microscopy under 32× magnification and digital images were stored as uncompressed TIFF files and exported into Photoshop CS software (Adobe Systems, San Jose, Calif.) for image processing and hard copy presentation.
(§6) The effect of PAX2 knock-down on cell growth was analyzed by phase contrast microscopy as described in Example 1.

Data set [7] relates to LNCaP cells. Put plainly: Phase contrast microscopy of cell growth. To be noted: 48 h DEFB1 induction. The procedure: as §5, §6
Data set [8] has as its system DU145 cells. Put plainly: Phase contrast microscopy of cell growth. To be noted: DU145, 48 h DEFB1 induction. The procedure:
as §5, §6

Data set [9] relates to LNCaP cells. Briefly: MTT cell viability assay. The following applies: DEFB1 induction 24-72 h. As to the method: Reactions were performed three times in triplicate.
DU145, PC3 and LNCaP cells (1×10^5) were transfected with 0.5 μg of the PAX2 siRNA pool or control siRNA pool using Codebreaker transfection reagent according to the manufacturer's protocol (Promega). Next, cell suspensions were diluted and seeded onto a 96-well plate at 1-5×10^3 cells per well and allowed to grow for 2-, 4- or 6 days. After culture, cell viability was determined by measuring the conversion of 3-[4,5-dimethylthiazol-2yl]-2,5 diphenyl tetrazolium bromide, MTT (Promega), to a colored formazan product. Absorbance was read at 540 nm on a scanning multiwell spectrophotometer.
as §4

Data set [10] concerns PC3 cells. Put plainly: Annexin V-FITC/PI flow cytometry. As to the method:
(§7) The remaining attached cells were harvested by trypsinization and combined with the detached cells and PBS. The cells were then pelleted at 4° C. (500×g) for 5 min, washed twice in PBS, and resuspended in 100 ul of 1× Annexin binding buffer (0.1 M Hepes/NaOH at pH 7.4, 1.4 M NaCl, 25 mM CaCl2) containing 5 μl of Annexin V-FITC and 5 μl of PI. The cells were incubated at room temperature (RT) for 15 min. in the dark, then diluted with 400 μl of 1× Annexin binding buffer and analyzed by FACscan (Becton Dickinson, San Jose, Calif.). All reactions were performed three times.
(§8) PC3 and DU145 cells transfected with the hBD-1 expression system were grown in 60-mm dishes and induced for 12, 24, and 48 h with 10 μM Pon A. The cells were harvested and analyzed by flow cytometry as described in Example 1.
(In general: In flow cytometry, cells or beads pass a laser one at a time.)

Data set [11] concerns DU145 cells. Briefly: Annexin V-FITC/PI flow cytometry. As to the method: as §7, §8

B1: DEFB1: human β-defensin-1 (SEQ ID NO:63), expressed in cells from pIND/DEFB1 on Ponasterone A induction (protein, listed as Homo sapiens)
chain: MRTSYLLLFTLCLLLSEMASGGNFLTGLGHRSDHYNCVSSGGQCLYSACPIFTKIQGTCYRGKAKCCK
Take B1: the “caspase activity (green staining)” value in [1] (DU145, 24 h DEFB1 induction) was “green staining”; in data set [1] (LNCaP, 24 h DEFB1 induction), “no green staining”; in [1] (PC3, 24 h DEFB1 induction), “green staining”. The “membrane integrity (AO/EtBr)” value in data set [2] (PC3, 24 h DEFB1 induction) is “accumulation of EtBr in the cytoplasm”; in [2] (PC3, 48 h DEFB1 induction), “condensed nuclei and appeared yellow”; in data set [3] it was “no observable alterations to membrane integrity”; in data set [4] (DU145, 24 h DEFB1 induction), “accumulation of EtBr in the cytoplasm”; in [4] (DU145, 48 h DEFB1 induction), “condensed nuclei and appeared yellow”. Also, in data set [5], the “hBD-1 cytotoxicity with ectopic AR expression” value is “no difference between PC3/AR+ and PC3 cells”. In addition, the cell number entry in data set [6] and in data set [8] was “significant reduction in cell number” throughout. Further, in data set [7], the cell proliferation entry is “no effect on cell proliferation”. Also, the “effect on cell viability” value in data set [9] is “no significant effect”. Besides, the “number of apoptotic cells” value is given as 10% in data set [10] (PC3, 12 h DEFB1 induction); 20% in data set [10] (PC3, 24 h DEFB1 induction); 12% in [11] (DU145, 12 h DEFB1 induction); 34% in [11] (DU145, 24 h DEFB1 induction); 59% in [11] (DU145, 48 h DEFB1 induction).
